In patent publication US20250092426, “CAS ENDONUCLEASES AND RELATED METHODS” (Flagship Pioneering Innovations VII, LLC, published 2025) one finds activity data, which are given here for one molecule.

The data set addresses T1, CasEnd-34 (synthetic construct).
T1 chain: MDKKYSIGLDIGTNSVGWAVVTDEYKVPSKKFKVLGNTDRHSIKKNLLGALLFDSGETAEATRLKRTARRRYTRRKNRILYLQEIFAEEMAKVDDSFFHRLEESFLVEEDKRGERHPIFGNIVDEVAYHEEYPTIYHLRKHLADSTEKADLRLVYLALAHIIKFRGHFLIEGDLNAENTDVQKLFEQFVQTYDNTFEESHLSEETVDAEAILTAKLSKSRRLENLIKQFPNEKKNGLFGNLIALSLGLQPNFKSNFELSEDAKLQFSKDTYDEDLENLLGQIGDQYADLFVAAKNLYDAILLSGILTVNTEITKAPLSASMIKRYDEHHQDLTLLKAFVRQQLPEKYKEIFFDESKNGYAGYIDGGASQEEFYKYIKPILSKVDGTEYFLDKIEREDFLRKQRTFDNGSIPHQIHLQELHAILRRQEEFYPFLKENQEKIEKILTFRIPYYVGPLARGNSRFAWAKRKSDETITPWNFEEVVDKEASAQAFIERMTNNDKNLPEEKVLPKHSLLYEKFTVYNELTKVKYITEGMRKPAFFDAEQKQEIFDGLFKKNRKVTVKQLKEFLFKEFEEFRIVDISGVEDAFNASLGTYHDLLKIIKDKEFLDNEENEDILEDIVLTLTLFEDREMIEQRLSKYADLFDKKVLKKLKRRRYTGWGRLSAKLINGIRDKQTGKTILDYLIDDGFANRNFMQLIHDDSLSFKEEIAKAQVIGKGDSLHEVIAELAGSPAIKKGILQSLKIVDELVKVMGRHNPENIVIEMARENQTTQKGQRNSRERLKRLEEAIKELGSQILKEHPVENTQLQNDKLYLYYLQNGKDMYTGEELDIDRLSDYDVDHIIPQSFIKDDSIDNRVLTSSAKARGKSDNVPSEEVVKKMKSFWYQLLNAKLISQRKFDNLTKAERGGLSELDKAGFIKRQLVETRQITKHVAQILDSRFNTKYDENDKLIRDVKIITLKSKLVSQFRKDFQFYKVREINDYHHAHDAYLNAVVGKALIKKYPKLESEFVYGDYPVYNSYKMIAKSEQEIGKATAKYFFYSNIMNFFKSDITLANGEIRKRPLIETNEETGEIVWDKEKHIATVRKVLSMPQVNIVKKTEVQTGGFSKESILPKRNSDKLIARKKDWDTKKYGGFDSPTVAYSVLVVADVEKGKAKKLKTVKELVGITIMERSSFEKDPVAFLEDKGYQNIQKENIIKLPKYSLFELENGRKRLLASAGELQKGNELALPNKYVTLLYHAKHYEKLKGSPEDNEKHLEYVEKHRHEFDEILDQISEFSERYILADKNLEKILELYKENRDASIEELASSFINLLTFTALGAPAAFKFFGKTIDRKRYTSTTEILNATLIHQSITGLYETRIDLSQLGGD
The data set can be described thus: cell_activity; +++; HEK293T; PAM not stated. The gist of the method: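 Editing activity was scored as the fraction of GFP+ cells on day 4 by flow cytometry. BFP-expressing HEK293T cells (250,000) received by nucleofection 200 ng plasmid for the RT-Cas fusion protein and 200 ng template RNA plasmid designed to convert BFP to GFP.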

Bounds are passed on as bounds.

B1: BFP-to-GFP template RNA ; BFP reporter protospacer (ssRNA ; dsDNA)
RNA: GCCGAAGCACUGCACGCCGUGUUUUAGAGCUAGAAAUAGCAAGUUAAAAUAAGGCUAGUCCGUUAUCAACUUGAAAAAGUGGCACCGAGUCGGUGCACCCUGACGUACGGCGUGCAGUGCUU
DNA 1: GCCGAAGCACTGCACGCCGT
DNA 2: ACGGCGTGCAGTGCTTCGGC
Turning to B1, the activity was ≥ 100 % of reference.
